From article PMC7774954, “Interactomic affinity profiling by holdup assay: Acetylation and distal residues impact the PDZome-binding specificity of PTEN phosphatase” (PLoS ONE, 2020)

Experiments:
[1] = molecular target: f16E6, fluorescein-labelled HPV16 E6 PBM peptide (HPV16); assay: fluorescence polarisation; direct: N-terminally fluorescein-labelled PBM peptide (tracer) with increasing amounts of MBP-PDZ; 384-well plates; triplicate; direct binding model (ProFit)
[2] = molecular target: ARHGEF12-1, PDZ domain of ARHGEF12 (human) (UniProt Q9NZN5); assay: fluorescence polarisation; competitive: pre-formed complex of PDZ domain (>60-80% complex) and 50 nM fluorescent tracer peptide, increasing amount of unlabeled PTEN peptide (8 concentrations); 20 mM HEPES pH 7.5, 150 mM NaCl, 0.5 mM TCEP, 0.01% Tween 20; triplicate; competitive binding model (ProFit); apparent
[3] = molecular target: GOPC-1, PDZ domain of GOPC (human) (UniProt Q9HD26); assay: as above
[4] = molecular target: MAST1-1, PDZ domain of MAST1 (human) (UniProt Q9Y2H9); assay: as above
[5] = molecular target: SNTA1-1, PDZ domain of SNTA1 (human) (UniProt Q13424); assay: as above
[6] = molecular target: SNTB1-1, PDZ domain of SNTB1 (human) (UniProt Q13884); assay: as above
[7] = molecular target: SNX27-1, PDZ domain of SNX27 (human) (UniProt Q96L92); assay: as above
PTEN_Ac (human) = PTEN_Ac (human) (UniProt P60484); assay: holdup assay; biotinylated PBM peptide saturating streptavidin resin (biotin resin as reference); tag-PDZ at 4 uM in crude E. coli lysate, 15 min, filtration, free tag-PDZ by capillary electrophoresis; singlicate; BI cut-off 0.20; BI converted into KD with the peptide concentration back-calculated from FP
PTEN_11 (human) = PTEN_11 (human) (UniProt P60484); assay: as above
[8] = molecular target: HTRA1-1, PDZ domain of HTRA1 (human) (UniProt Q92743); assay: fluorescence polarisation; competitive: pre-formed complex of PDZ domain (>60-80% complex) and 50 nM fluorescent tracer peptide, increasing amount of unlabeled PTEN peptide (8 concentrations); 20 mM HEPES pH 7.5, 150 mM NaCl, 0.5 mM TCEP, 0.01% Tween 20; triplicate; competitive binding model (ProFit); apparent
[9] = molecular target: MAST2-1, PDZ domain of MAST2 (human) (UniProt Q6P0Q8); assay: as above
[10] = molecular target: SNTG2-1, PDZ domain of SNTG2 (human) (UniProt Q9NY99); assay: as above
PTEN_KR (human) = PTEN_KR (human) (UniProt P60484); assay: holdup assay; biotinylated PBM peptide saturating streptavidin resin (biotin resin as reference); tag-PDZ at 4 uM in crude E. coli lysate, 15 min, filtration, free tag-PDZ by capillary electrophoresis; singlicate; BI cut-off 0.20; BI converted into KD with the peptide concentration back-calculated from FP
PTEN_13 (human) = PTEN_13 (human) (UniProt P60484); assay: as above
[11] = molecular target: fpRSK1, fluorescein-labelled phosphorylated RSK1 PBM peptide; assay: fluorescence polarisation; direct: N-terminally fluorescein-labelled PBM peptide (tracer) with increasing amounts of MBP-PDZ; 384-well plates; triplicate; direct binding model (ProFit)
[12] = molecular target: GRID2IP-2, second PDZ domain of GRID2IP (human) (UniProt A4D2P6); assay: fluorescence polarisation; competitive: pre-formed complex of PDZ domain (>60-80% complex) and 50 nM fluorescent tracer peptide, increasing amount of unlabeled PTEN peptide (8 concentrations); 20 mM HEPES pH 7.5, 150 mM NaCl, 0.5 mM TCEP, 0.01% Tween 20; triplicate; competitive binding model (ProFit); apparent
[13] = molecular target: fRSK1, fluorescein-labelled RSK1 PBM peptide; assay: fluorescence polarisation; direct: N-terminally fluorescein-labelled PBM peptide (tracer) with increasing amounts of MBP-PDZ; 384-well plates; triplicate; direct binding model (ProFit)
SNX27-1 (human) = assay: fluorescence polarisation; competitive: 50 nM fluorescent tracer peptide pre-formed with the PDZ domain (>60-80% complex), unlabeled peptide added at 8 concentrations; 20 mM HEPES pH 7.5, 150 mM NaCl, 0.5 mM TCEP, 0.01% Tween 20; triplicate; apparent
MAST1-1 (human) = assay: as above
MAST2-1 (human) = assay: as above

MAST2-1, PDZ domain of MAST2 (human), sequence (Q6P0Q8 whole entry, the tested form may be a part): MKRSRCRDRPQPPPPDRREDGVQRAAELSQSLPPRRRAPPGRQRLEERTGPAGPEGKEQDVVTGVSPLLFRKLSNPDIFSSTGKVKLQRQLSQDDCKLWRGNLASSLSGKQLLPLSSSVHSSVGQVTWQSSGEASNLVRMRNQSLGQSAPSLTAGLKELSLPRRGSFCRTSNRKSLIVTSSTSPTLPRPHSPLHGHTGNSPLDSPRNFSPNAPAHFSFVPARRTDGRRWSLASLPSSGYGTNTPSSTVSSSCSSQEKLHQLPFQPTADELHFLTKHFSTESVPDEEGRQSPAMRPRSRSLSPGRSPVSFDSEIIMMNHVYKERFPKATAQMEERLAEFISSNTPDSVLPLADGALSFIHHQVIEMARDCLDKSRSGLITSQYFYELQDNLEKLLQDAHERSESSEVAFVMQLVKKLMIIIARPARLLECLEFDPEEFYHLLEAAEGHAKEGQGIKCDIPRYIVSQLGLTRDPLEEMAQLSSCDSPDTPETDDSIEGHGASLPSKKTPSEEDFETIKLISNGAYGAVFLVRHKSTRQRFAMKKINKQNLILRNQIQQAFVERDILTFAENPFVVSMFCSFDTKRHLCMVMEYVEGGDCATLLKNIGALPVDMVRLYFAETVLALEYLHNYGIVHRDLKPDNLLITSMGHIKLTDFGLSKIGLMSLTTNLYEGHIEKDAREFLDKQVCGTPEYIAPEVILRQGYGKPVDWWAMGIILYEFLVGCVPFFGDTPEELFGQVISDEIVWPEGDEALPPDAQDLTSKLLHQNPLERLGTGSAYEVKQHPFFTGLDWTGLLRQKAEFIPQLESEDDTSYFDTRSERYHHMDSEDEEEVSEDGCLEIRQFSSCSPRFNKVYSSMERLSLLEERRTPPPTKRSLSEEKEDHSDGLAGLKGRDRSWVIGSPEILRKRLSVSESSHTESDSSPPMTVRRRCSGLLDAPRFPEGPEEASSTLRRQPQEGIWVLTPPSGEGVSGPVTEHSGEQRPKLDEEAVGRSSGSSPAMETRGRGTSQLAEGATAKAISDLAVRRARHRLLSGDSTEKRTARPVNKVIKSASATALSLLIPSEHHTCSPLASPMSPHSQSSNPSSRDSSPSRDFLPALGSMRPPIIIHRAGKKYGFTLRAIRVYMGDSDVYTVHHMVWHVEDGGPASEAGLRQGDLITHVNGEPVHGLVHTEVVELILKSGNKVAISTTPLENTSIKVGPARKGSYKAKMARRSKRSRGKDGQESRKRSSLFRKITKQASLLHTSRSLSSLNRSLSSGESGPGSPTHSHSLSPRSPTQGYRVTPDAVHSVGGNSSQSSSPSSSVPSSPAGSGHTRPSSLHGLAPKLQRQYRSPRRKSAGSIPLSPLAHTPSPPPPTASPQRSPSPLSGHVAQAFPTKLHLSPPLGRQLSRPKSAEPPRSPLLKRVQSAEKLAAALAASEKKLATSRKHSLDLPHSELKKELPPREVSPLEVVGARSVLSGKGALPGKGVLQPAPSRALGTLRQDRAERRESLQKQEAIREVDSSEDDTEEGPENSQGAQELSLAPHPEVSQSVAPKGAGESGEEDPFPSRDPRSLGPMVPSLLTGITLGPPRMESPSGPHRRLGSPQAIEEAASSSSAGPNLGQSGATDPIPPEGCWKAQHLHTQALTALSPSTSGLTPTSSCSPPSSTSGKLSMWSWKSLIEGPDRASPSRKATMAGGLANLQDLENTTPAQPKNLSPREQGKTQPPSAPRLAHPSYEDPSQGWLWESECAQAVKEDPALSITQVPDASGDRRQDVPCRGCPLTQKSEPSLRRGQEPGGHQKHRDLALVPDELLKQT
SNTA1-1, PDZ domain of SNTA1 (human), sequence (Q13424 whole entry, the tested form may be a part): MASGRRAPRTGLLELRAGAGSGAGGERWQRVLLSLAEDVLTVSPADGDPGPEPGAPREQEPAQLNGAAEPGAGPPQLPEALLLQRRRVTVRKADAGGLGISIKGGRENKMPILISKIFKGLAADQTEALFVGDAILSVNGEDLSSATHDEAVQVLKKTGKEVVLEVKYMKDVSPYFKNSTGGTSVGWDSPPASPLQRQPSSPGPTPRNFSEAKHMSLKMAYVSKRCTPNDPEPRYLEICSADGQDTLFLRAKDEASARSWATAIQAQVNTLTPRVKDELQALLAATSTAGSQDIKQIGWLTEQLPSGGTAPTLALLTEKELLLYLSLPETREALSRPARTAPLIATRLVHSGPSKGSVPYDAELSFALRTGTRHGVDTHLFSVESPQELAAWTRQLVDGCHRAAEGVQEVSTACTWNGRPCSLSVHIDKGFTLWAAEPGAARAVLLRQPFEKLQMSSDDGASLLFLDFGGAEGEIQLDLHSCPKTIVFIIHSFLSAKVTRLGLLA
MAST1-1, PDZ domain of MAST1 (human), sequence (Q9Y2H9 whole entry, the tested form may be a part): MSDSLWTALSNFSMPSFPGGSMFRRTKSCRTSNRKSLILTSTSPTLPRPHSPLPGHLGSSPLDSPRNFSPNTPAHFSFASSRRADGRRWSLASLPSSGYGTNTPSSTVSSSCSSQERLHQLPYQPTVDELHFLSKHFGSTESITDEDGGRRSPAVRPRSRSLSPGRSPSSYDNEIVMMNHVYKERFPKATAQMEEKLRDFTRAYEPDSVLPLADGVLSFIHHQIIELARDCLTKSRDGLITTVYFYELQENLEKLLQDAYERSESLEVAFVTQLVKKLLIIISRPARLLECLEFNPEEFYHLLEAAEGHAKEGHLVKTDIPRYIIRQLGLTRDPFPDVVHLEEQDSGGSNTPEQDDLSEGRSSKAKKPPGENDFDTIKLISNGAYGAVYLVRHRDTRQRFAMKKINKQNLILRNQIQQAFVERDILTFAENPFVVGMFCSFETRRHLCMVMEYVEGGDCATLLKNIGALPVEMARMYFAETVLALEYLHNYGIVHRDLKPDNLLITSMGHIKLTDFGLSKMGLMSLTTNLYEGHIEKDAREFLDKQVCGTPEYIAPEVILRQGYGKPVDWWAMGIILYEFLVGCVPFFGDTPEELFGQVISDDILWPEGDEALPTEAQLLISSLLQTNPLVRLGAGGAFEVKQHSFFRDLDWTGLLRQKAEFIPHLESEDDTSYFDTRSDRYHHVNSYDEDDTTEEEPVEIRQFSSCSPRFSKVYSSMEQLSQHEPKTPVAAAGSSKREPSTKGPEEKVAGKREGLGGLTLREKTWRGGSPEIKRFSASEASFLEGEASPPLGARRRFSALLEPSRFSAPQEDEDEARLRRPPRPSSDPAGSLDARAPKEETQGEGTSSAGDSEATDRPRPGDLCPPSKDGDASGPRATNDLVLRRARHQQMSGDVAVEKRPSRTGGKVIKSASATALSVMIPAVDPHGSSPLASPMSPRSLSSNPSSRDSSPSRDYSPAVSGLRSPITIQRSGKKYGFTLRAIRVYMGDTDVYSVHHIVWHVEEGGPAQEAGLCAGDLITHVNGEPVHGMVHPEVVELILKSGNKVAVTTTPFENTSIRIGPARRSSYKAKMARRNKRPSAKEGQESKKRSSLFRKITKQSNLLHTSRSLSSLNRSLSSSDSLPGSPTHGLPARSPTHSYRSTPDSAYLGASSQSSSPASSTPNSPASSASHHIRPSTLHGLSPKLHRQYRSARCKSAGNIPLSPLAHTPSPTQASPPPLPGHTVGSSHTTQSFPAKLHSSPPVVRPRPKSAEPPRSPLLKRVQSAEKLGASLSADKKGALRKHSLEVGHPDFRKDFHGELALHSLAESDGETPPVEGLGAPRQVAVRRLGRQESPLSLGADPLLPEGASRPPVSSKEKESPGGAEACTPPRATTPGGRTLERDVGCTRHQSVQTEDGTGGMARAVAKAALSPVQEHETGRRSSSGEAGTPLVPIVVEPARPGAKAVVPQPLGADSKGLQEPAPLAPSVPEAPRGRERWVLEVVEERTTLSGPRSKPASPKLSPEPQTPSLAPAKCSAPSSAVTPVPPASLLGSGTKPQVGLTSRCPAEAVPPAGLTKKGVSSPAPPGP
HTRA1-1, PDZ domain of HTRA1 (human), sequence (Q92743 23-480): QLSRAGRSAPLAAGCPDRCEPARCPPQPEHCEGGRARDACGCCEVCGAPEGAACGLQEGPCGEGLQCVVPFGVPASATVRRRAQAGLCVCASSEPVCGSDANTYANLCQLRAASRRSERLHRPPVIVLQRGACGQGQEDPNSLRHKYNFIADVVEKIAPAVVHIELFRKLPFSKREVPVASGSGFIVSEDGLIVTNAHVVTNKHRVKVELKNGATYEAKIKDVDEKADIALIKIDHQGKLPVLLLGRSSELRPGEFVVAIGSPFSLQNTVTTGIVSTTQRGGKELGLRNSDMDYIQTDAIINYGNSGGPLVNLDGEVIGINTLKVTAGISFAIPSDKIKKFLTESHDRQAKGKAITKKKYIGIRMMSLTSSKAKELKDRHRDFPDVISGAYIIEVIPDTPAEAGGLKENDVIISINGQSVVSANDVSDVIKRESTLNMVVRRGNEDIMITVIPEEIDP
SNTB1-1, PDZ domain of SNTB1 (human), sequence (Q13884 whole entry, the tested form may be a part): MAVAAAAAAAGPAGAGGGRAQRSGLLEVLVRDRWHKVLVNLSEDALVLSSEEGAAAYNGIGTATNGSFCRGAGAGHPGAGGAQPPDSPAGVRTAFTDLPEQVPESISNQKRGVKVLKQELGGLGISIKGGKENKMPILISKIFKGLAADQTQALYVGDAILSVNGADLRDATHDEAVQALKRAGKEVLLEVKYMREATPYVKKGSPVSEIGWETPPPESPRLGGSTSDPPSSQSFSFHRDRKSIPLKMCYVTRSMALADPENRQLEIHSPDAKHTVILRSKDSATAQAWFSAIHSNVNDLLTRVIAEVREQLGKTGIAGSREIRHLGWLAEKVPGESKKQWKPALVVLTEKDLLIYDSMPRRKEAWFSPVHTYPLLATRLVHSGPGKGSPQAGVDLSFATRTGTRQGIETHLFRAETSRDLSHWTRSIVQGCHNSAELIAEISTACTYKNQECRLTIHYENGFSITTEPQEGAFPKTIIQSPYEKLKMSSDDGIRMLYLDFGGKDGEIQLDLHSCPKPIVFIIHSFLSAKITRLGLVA
GRID2IP-2, second PDZ domain of GRID2IP (human), sequence (A4D2P6 279-356): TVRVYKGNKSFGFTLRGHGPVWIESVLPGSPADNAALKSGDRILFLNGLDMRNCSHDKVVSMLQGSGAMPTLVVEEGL

Question: Which Kd [1] does the source give for “MAST1-1, PDZ domain of MAST1 (from UniProt Q9Y2H9 1-1570) (domain or fragment)” here?
Answer: Its Kd is 7.52 µM.

Question: Which Kd [2] does the source give for “PTEN_11, 11-mer wild-type PDZ-binding motif peptide of PTEN” here?
Answer: Its Kd is 113 µM.

Question: And the Kd [3]?
Answer: The Kd was 131 µM.

Question: And the Kd [4]?
Answer: Its Kd is 10.9 µM.

Question: What about the Kd [5] of the same substance?
Answer: Its Kd is 194 µM.

Question: And the Kd [6]?
Answer: Its Kd is 67 µM.

Question: What about the Kd [7] of the same substance?
Answer: Its Kd is 13.8 µM.

Question: How did the Kd (PTEN_Ac (human)) turn out when “MAGI3-2 (from UniProt Q5TCQ9 410-492) (domain or fragment)” was run?
Answer: Its Kd is 39 µM.

Question: “NHERF2-2 (from UniProt Q15599 150-230) (domain or fragment)” was tested. Which Kd (PTEN_11 (human)) did it give?
Answer: Its Kd is 35 µM.

Question: For “PTEN_KR, 11-mer PTEN PDZ-binding motif peptide with K402R”, which Kd [2] is on record?
Answer: Its Kd is 114 µM.

Question: What about the Kd [3] of the same substance?
Answer: Its Kd is 47.4 µM.

Question: And the Kd [8]?
Answer: The Kd was 36.2 µM.

Question: What about the Kd [4] of the same substance?
Answer: The Kd was 9.11 µM.

Question: And the Kd [9]?
Answer: Its Kd is 2.39 µM.

Question: And the Kd [5]?
Answer: Its Kd is 65.1 µM.

Question: What about the Kd [6] of the same substance?
Answer: The Kd was 24.4 µM.

Question: And the Kd [10]?
Answer: The Kd was 141 µM.

Question: What about the Kd [7] of the same substance?
Answer: The Kd was 8.32 µM.

Question: Which Kd (PTEN_11 (human)) does the source give for MAST2-1 (domain or fragment) here?
Answer: The Kd was 13 µM.

Question: What about the Kd (PTEN_Ac (human)) of the same substance?
Answer: The Kd was 4 µM.

Question: And the Kd (PTEN_KR (human))?
Answer: Its Kd is 7 µM.

Question: With SNX27-1 (domain or fragment) as the substance, how does the Kd (PTEN_13 (human)) read?
Answer: The Kd was 6 µM.

Question: What about the Kd (PTEN_Ac (human)) of the same substance?
Answer: Its Kd is 4 µM.

Question: Which Kd (PTEN_Ac (human)) does the source give for “PTPN13-4 (from UniProt Q12923 1788-1868) (domain or fragment)” here?
Answer: Its Kd is 10 µM.

Question: Which Kd [11] does the source give for “SNTG2-1, PDZ domain of SNTG2 (from UniProt Q9NY99 1-539) (domain or fragment)” here?
Answer: Its Kd is 21.9 µM.

Question: With “PTEN_13, 13-mer wild-type PDZ-binding motif peptide of PTEN” as the substance, how does the Kd [2] read?
Answer: The Kd was 100 µM.

Question: What about the Kd [3] of the same substance?
Answer: Its Kd is 82.1 µM.

Question: And the Kd [12]?
Answer: Its Kd is 59.1 µM.

Question: And the Kd [8]?
Answer: The Kd was 25.3 µM.

Question: What about the Kd [4] of the same substance?
Answer: The Kd was 7.62 µM.

Question: And the Kd [9]?
Answer: Its Kd is 1.28 µM.

Question: What about the Kd [5] of the same substance?
Answer: Its Kd is 123 µM.

Question: What about the Kd [6] of the same substance?
Answer: The Kd was 44.5 µM.

Question: And the Kd [7]?
Answer: Its Kd is 7.95 µM.

Question: What does the source list for MAST1-1 (domain or fragment)?
Answer: Kd (PTEN_11 (human)): 39 µM; Kd (PTEN_Ac (human)): 26 µM; Kd (PTEN_KR (human)): 32 µM

Question: For “MAST2-1, PDZ domain of MAST2 (from UniProt Q6P0Q8 1-1798) (domain or fragment)”, which Kd [13] is on record?
Answer: The Kd was 6.87 µM.

Question: How did the Kd (PTEN_11 (human)) turn out when MAST3-1 (domain or fragment) was run?
Answer: Its Kd is 241 µM.

Question: And the Kd (PTEN_Ac (human))?
Answer: The Kd was 85 µM.

Question: And the Kd (PTEN_KR (human))?
Answer: Its Kd is 82 µM.

Question: “SNTA1-1, PDZ domain of SNTA1 (from UniProt Q13424 1-505) (domain or fragment)” was tested. Which Kd [11] did it give?
Answer: The Kd was 20.4 µM.

Question: How did the Kd [13] turn out when “HTRA1-1, PDZ domain of HTRA1 (from UniProt Q92743 23-480) (domain or fragment)” was run?
Answer: The Kd was 64.8 µM.

Question: “SNTB1-1, PDZ domain of SNTB1 (from UniProt Q13884 1-538) (domain or fragment)” was tested. Which Kd [11] did it give?
Answer: Its Kd is 3.98 µM.

Question: “PTEN_KR (from UniProt P60484 393-403) (peptide)” was tested. Which Kd (SNX27-1 (human)) did it give?
Answer: Its Kd is 8 µM.

Question: With “PTEN_11 (from UniProt P60484 393-403) (peptide)” as the substance, how does the Kd (SNX27-1 (human)) read?
Answer: The Kd was 14 µM.

Question: With SNTB2-1 (domain or fragment) as the substance, how does the Kd (PTEN_13 (human)) read?
Answer: The Kd was 64 µM.

Question: With “ARHGEF12-1, PDZ domain of ARHGEF12 (from UniProt Q9NZN5 1-1544) (domain or fragment)” as the substance, how does the Kd [13] read?
Answer: Its Kd is 3.96 µM.

Question: What does the source list for “PTEN_13 (from UniProt P60484 391-403) (peptide)”?
Answer: Kd (MAST1-1 (human)): 8 µM; Kd (MAST2-1 (human)): 1 µM

Question: With “PTEN_Ac, 11-mer PTEN PDZ-binding motif peptide acetylated at K402” as the substance, how does the Kd [2] read?
Answer: Its Kd is 65.5 µM.

Question: What about the Kd [3] of the same substance?
Answer: The Kd was 70.2 µM.

Question: What about the Kd [8] of the same substance?
Answer: Its Kd is 10.2 µM.

Question: What about the Kd [4] of the same substance?
Answer: The Kd was 7.4 µM.

Question: And the Kd [9]?
Answer: The Kd was 2.56 µM.

Question: And the Kd [5]?
Answer: Its Kd is 45.3 µM.

Question: What about the Kd [6] of the same substance?
Answer: Its Kd is 14.5 µM.

Question: And the Kd [10]?
Answer: Its Kd is 377 µM.

Question: What about the Kd [7] of the same substance?
Answer: Its Kd is 4.07 µM.

Question: For “DLG1-2 (from UniProt Q12959 319-405) (domain or fragment)”, which Kd (PTEN_Ac (human)) is on record?
Answer: Its Kd is 36 µM.

Question: Which Kd (PTEN_11 (human)) does the source give for “PARD3-3 (from UniProt Q8TEW0 590-677) (domain or fragment)” here?
Answer: Its Kd is 160 µM.

Question: For “PTPN13-2 (from UniProt Q12923 1368-1452) (domain or fragment)”, which Kd (PTEN_11 (human)) is on record?
Answer: Its Kd is 148 µM.
